# Source: patent publication US20240059799A1 (Pfizer, published 2024)
# T1: recombinant human TL1A (human, UniProt O95150 71-251)
# T1 construct: The ELISA method says only 'recombinant TL1A' coated on plates; homotrimeric cytokine; also called TNFSF15; recombinant TL1A
# T1 chain: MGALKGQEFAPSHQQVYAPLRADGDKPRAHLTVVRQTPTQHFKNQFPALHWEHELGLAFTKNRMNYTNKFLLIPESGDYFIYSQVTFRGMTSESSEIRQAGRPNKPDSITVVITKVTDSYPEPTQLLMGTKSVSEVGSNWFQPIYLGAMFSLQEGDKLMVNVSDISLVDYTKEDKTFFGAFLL
# Biological target: T1, recombinant human TL1A
# Test: competition ELISA on coated recombinant TL1A; competitor biotinylated TL1A-0002
# Procedure: For this competition ELISA assay procedure, 96-well high binding plates (Corning, product number 3590) were coated with 1 μg/mL recombinant TL1A in 100 μL/well in Phospate Buffered Saline (PBS) overnight at 4° C. Plates were then blocked in PBS+0.02% casein solution and washed with PBS+0.05% Tween-20 following standard ELISA protocol. […] Plates were washed with PBS+0.05% Tween-20 following standard ELISA protocol, and Streptavidin-HRP (Southern Biotech, product number 7100-05) diluted to 1:10,000 in assay buffer was added to plates and incubated for 25-30 minutes at room temperature. Next, the plates were washed with PBS+0.05% Tween-20 following standard ELISA protocol, and then TMB substrate (BioFX Laboratories, catalog number TMBW-0100-01) was added to plates. Reactions were stopped after approximately 5 minutes by adding 0.18 M ortho-phosphoric acid to each well and absorbance was read at 450 nm.
Bioactivity relative to TL1A-0002,IC50,Binder
1.3 fold,6.6 nM,"TL1A-0266 (antibody, human IgG1, kappa, V domains shown, human IgG1 effector-function-minimized / human kappa) VH: QVQLVQSGAEVKKPGASVKVSCKASGYDYTYYGISWVRQAPGQGLEWMGWISTYNTNTHYAPSLQGRVTMTTDTSTSTAYMELRSLRSDDTAVYYCARESYYGSGAFRGGMDVWGQGTTVTVSS VL: DIQMTQSPSSLSASVGDRVTITCRASQSVSSYLAWYQQKPGKAPKLLIYDASNRATGVPSRFSGSGSGTDFTLTISSLQPEDFATYYCQQRSNWPWTFGQGTKVEIKR"
2.3 fold,11.6 nM,"TL1A-0272 (antibody, human IgG1, kappa, V domains shown, human IgG1 effector-function-minimized / human kappa) VH: QVQLVQSGAEVKKPGASVKVSCKASGYDFSYYGISWVRQAPGQGLEWMGWISTYNDNTHYAQKLQGRVTMTTDTSTSTAYMELRSLRSDDTAVYYCARESYYGSGAFRGGMDVWGQGTTVTVSS VL: DIQMTQSPSSLSASVGDRVTITCRASQSVSSYLAWYQQKPGKAPKLLIYDASNRATGVPSRFSGSGSGTDFTLTISSLQPEDFATYYCQQRSNWPWTFGQGTKVEIKR"
2 fold,10.2 nM,"TL1A-0277 (antibody, human IgG1, kappa, V domains shown, human IgG1 effector-function-minimized / human kappa) VH: QVQLVQSGAEVKKPGASVKVSCKASGYDFSYYGISWVRQAPGQGLEWMGWISTYNTGTHYAQKLQGRVTMTTDTSTSTAYMELRSLRSDDTAVYYCARESYYGSGAHRGGMDVWGQGTTVTVSS VL: DIQMTQSPSSLSASVGDRVTITCRASQSVSSYLAWYQQKPGKAPKLLIYDASNRATGVPSRFSGSGSGTDFTLTISSLQPEDFATYYCQQRSNWPWTFGQGTKVEIKR"
2.1 fold,10.5 nM,"TL1A-0279 (antibody, human IgG1, kappa, V domains shown, human IgG1 effector-function-minimized / human kappa) VH: QVQLVQSGAEVKKPGASVKVSCKASGYDFSYYGISWVRQAPGQGLEWMGWISTYNTVTHYAPSLQGRVTMTTDTSTSTAYMELRSLRSDDTAVYYCARESYYGSGAHRGGMDVWGQGTTVTVSS VL: DIQMTQSPSSLSASVGDRVTITCRASQSVSSYLAWYQQKPGKAPKLLIYDASNRATGVPSRFSGSGSGTDFTLTISSLQPEDFATYYCQQRSNWPWTFGQGTKVEIKR"
1.8 fold,9 nM,"TL1A-0275 (antibody, human IgG1, kappa, V domains shown, human IgG1 effector-function-minimized / human kappa) VH: QVQLVQSGAEVKKPGASVKVSCKASGYDFSYYGISWVRQAPGQGLEWMGWISTYNTGTHYAPSLQGRVTMTTDTSTSTAYMELRSLRSDDTAVYYCARESYYGSGAHRGGMDVWGQGTTVTVSS VL: DIQMTQSPSSLSASVGDRVTITCRASQSVSSYLAWYQQKPGKAPKLLIYDASNRATGVPSRFSGSGSGTDFTLTISSLQPEDFATYYCQQRSNWPWTFGQGTKVEIKR"
9.6 fold,48.2 nM,"TL1A-0268 (antibody, V domains shown, IgG1 effector-minimized/kappa) VH: QVQLVQSGAEVKKPGASVKVSCKASGYDYTYYGISWVRQAPGQGLEWMGWISTYGGNTHYAPSLQGRVTMTTDTSTSTAYMELRSLRSDDTAVYYCARESYYGSGAFRGGMDVWGQGTTVTVSS VL: DIQMTQSPSSLSASVGDRVTITCRASQSVSSYLAWYQQKPGKAPKLLIYDASNRATGVPSRFSGSGSGTDFTLTISSLQPEDFATYYCQQRSNWPWTFGQGTKVEIKR"
1.6 fold,8.2 nM,"TL1A-0280 (antibody, human IgG1, kappa, V domains shown, human IgG1 effector-function-minimized / human kappa) VH: QVQLVQSGAEVKKPGASVKVSCKASGYDFSYYGISWVRQAPGQGLEWMGWISTYNTNTHYAPSLQGRVTMTTDTSTSTAYMELRSLRSDDTAVYYCARESYYGSGAFRGGMDVWGQGTTVTVSS VL: DIQMTQSPSSLSASVGDRVTITCRASQSVSSYLAWYQQKPGKAPKLLIYDASNRATGVPSRFSGSGSGTDFTLTISSLQPEDFATYYCQQRSNWPWTFGQGTKVEIKR"
2.1 fold,10.6 nM,"TL1A-0276 (antibody, human IgG1, kappa, V domains shown, human IgG1 effector-function-minimized / human kappa) VH: QVQLVQSGAEVKKPGASVKVSCKASGYDFSYYGISWVRQAPGQGLEWMGWISTYNTGTHYAQKLQGRVTMTTDTSTSTAYMELRSLRSDDTAVYYCARESYYGSGAFRGGMDVWGQGTTVTVSS VL: DIQMTQSPSSLSASVGDRVTITCRASQSVSSYLAWYQQKPGKAPKLLIYDASNRATGVPSRFSGSGSGTDFTLTISSLQPEDFATYYCQQRSNWPWTFGQGTKVEIKR"
2.1 fold,10.6 nM,"TL1A-0271 (antibody, human IgG1, kappa, V domains shown, human IgG1 effector-function-minimized / human kappa) VH: QVQLVQSGAEVKKPGASVKVSCKASGYDFSYYGISWVRQAPGQGLEWMGWISTYNDNTHYAPSLQGRVTMTTDTSTSTAYMELRSLRSDDTAVYYCARESYYGSGAHRGGMDVWGQGTTVTVSS VL: DIQMTQSPSSLSASVGDRVTITCRASQSVSSYLAWYQQKPGKAPKLLIYDASNRATGVPSRFSGSGSGTDFTLTISSLQPEDFATYYCQQRSNWPWTFGQGTKVEIKR"
1.3 fold,6.8 nM,"TL1A-0267 (antibody, human IgG1, kappa, V domains shown, human IgG1 effector-function-minimized / human kappa) VH: QVQLVQSGAEVKKPGASVKVSCKASGYDYTYYGISWVRQAPGQGLEWMGWISTYNTNTHYAPSLQGRVTMTTDTSTSTAYMELRSLRSDDTAVYYCARESYYGSGAHRGGMDVWGQGTTVTVSS VL: DIQMTQSPSSLSASVGDRVTITCRASQSVSSYLAWYQQKPGKAPKLLIYDASNRATGVPSRFSGSGSGTDFTLTISSLQPEDFATYYCQQRSNWPWTFGQGTKVEIKR"
2.6 fold,13.1 nM,"TL1A-0281 (antibody, human IgG1, kappa, V domains shown, human IgG1 effector-function-minimized / human kappa) VH: QVQLVQSGAEVKKPGASVKVSCKASGYDFSYYGISWVRQAPGQGLEWMGWISTYNTNTHYAPSLQGRVTMTTDTSTSTAYMELRSLRSDDTAVYYCARESYYGSGAHRGGMDVWGQGTTVTVSS VL: DIQMTQSPSSLSASVGDRVTITCRASQSVSSYLAWYQQKPGKAPKLLIYDASNRATGVPSRFSGSGSGTDFTLTISSLQPEDFATYYCQQRSNWPWTFGQGTKVEIKR"
2.3 fold,11.5 nM,"TL1A-0270 (antibody, human IgG1, kappa, V domains shown, human IgG1 effector-function-minimized / human kappa) VH: QVQLVQSGAEVKKPGASVKVSCKASGYDFSYYGISWVRQAPGQGLEWMGWISTYNDNTHYAPSLQGRVTMTTDTSTSTAYMELRSLRSDDTAVYYCARESYYGSGAFRGGMDVWGQGTTVTVSS VL: DIQMTQSPSSLSASVGDRVTITCRASQSVSSYLAWYQQKPGKAPKLLIYDASNRATGVPSRFSGSGSGTDFTLTISSLQPEDFATYYCQQRSNWPWTFGQGTKVEIKR"
10.3 fold,52.1 nM,"TL1A-0282 (antibody, V domains shown, IgG1 effector-minimized/kappa) VH: QVQLVQSGAEVKKPGASVKVSCKASGYDFSYYGISWVRQAPGQGLEWMGWISTYGGNTHYAPSLQGRVTMTTDTSTSTAYMELRSLRSDDTAVYYCARESYYGSGAFRGGMDVWGQGTTVTVSS VL: DIQMTQSPSSLSASVGDRVTITCRASQSVSSYLAWYQQKPGKAPKLLIYDASNRATGVPSRFSGSGSGTDFTLTISSLQPEDFATYYCQQRSNWPWTFGQGTKVEIKR"
2.2 fold,10.9 nM,"TL1A-0273 (antibody, human IgG1, kappa, V domains shown, human IgG1 effector-function-minimized / human kappa) VH: QVQLVQSGAEVKKPGASVKVSCKASGYDFSYYGISWVRQAPGQGLEWMGWISTYNDNTHYAQKLQGRVTMTTDTSTSTAYMELRSLRSDDTAVYYCARESYYGSGAHRGGMDVWGQGTTVTVSS VL: DIQMTQSPSSLSASVGDRVTITCRASQSVSSYLAWYQQKPGKAPKLLIYDASNRATGVPSRFSGSGSGTDFTLTISSLQPEDFATYYCQQRSNWPWTFGQGTKVEIKR"
7.5 fold,37.7 nM,"TL1A-0269 (antibody, V domains shown, IgG1 effector-minimized/kappa) VH: QVQLVQSGAEVKKPGASVKVSCKASGYDYTYYGISWVRQAPGQGLEWMGWISTYGGNTHYAPSLQGRVTMTTDTSTSTAYMELRSLRSDDTAVYYCARESYYGSGAHRGGMDVWGQGTTVTVSS VL: DIQMTQSPSSLSASVGDRVTITCRASQSVSSYLAWYQQKPGKAPKLLIYDASNRATGVPSRFSGSGSGTDFTLTISSLQPEDFATYYCQQRSNWPWTFGQGTKVEIKR"
1.8 fold,9.1 nM,"TL1A-0278 (antibody, human IgG1, kappa, V domains shown, human IgG1 effector-function-minimized / human kappa) VH: QVQLVQSGAEVKKPGASVKVSCKASGYDFSYYGISWVRQAPGQGLEWMGWISTYNTVTHYAPSLQGRVTMTTDTSTSTAYMELRSLRSDDTAVYYCARESYYGSGAFRGGMDVWGQGTTVTVSS VL: DIQMTQSPSSLSASVGDRVTITCRASQSVSSYLAWYQQKPGKAPKLLIYDASNRATGVPSRFSGSGSGTDFTLTISSLQPEDFATYYCQQRSNWPWTFGQGTKVEIKR"
48.9 fold,246 nM,"TL1A-0283 (antibody, V domains shown, IgG1 effector-minimized/kappa) VH: QVQLVQSGAEVKKPGASVKVSCKASGYDFSYYGISWVRQAPGQGLEWMGWISTYGGNTHYAPSLQGRVTMTTDTSTSTAYMELRSLRSDDTAVYYCARESYYGSGAHRGGMDVWGQGTTVTVSS VL: DIQMTQSPSSLSASVGDRVTITCRASQSVSSYLAWYQQKPGKAPKLLIYDASNRATGVPSRFSGSGSGTDFTLTISSLQPEDFATYYCQQRSNWPWTFGQGTKVEIKR"
2 fold,10.1 nM,"TL1A-0274 (antibody, human IgG1, kappa, V domains shown, human IgG1 effector-function-minimized / human kappa) VH: QVQLVQSGAEVKKPGASVKVSCKASGYDFSYYGISWVRQAPGQGLEWMGWISTYNTGTHYAPSLQGRVTMTTDTSTSTAYMELRSLRSDDTAVYYCARESYYGSGAFRGGMDVWGQGTTVTVSS VL: DIQMTQSPSSLSASVGDRVTITCRASQSVSSYLAWYQQKPGKAPKLLIYDASNRATGVPSRFSGSGSGTDFTLTISSLQPEDFATYYCQQRSNWPWTFGQGTKVEIKR"
